Laboratory results as given in publication doi:10.1101/145276.

Biological target: T1, Mmi1 YTH domain (longer construct) (Schizosaccharomyces pombe, UniProt O74958 326-488)
T1 sequence: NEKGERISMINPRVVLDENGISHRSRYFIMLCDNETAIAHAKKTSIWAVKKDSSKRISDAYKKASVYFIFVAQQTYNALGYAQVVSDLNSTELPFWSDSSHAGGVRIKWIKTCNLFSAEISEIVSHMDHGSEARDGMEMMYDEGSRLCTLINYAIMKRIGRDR
Assay: ITC

AUUAAACA (ssRNA) [DSR 8-mer]: binds.
